In the supplement of paper PMC12764529:
± gives the half width of the 95% confidence interval.

Experiments:
[1] = folding stability dG unfold (combined trypsin and chymotrypsin); higher = more stable
Method in brief: (§1)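 Sequencing followed digestion of designed mini-proteins with trypsin and chymotrypsin, each at 11 concentrations in threefold dilutions together with a no-protease condition. The mini-proteins were under 80 residues, had no cysteine, sat in a PA-tagged cDNA display construct, and were kept only if AlphaFold2 dimer inter-PAE was above 15. From the counts, Bayesian fitting gave K50, and unfolding free energy was derived against a sequence-predicted unfolded-state K50 and a shared folded-state K50, per protease or combined.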

[2] = folding stability dG unfold from trypsin proteolysis; higher = more stable
Method in brief: as §1

[3] = folding stability dG unfold from chymotrypsin proteolysis; higher = more stable
Method in brief: as §1

Row | Sequence | folding stability dG unfold [1] | folding stability dG unfold [2] | folding stability dG unfold [3]
1 | SAGGSAGGSAGMKVVVTLPDRTVTIPVNGTLDEAKEAVIKRAEELFGKPIPIEEITMSGESAGGSAGGSAGG [r11_1028_JUSTAS] | 0.408 ± 0.11 kcal/mol | 0.677 ± 0.03 kcal/mol | -0.0243 ± 0.083 kcal/mol
2 | SAGGSTLEEIKAAVIKAAEAGEKEAEIEAPLPDGGKLRILKGGVIEFIPEDGVPKRLKISVSEIKVSAGGSA [r2_97_TrMRF] | 0.0476 ± 0.26 kcal/mol | -1.2 ± 0.75 kcal/mol | 0.451 ± 0.36 kcal/mol
3 | SAMPLDDLPAEQIRELVRSIMRKHGMPPDNVEVDVEVQRPPDGYYYITVDVEMRMNGKERKYKFTIWIPSAG [r14_703_TrROS] | 3.75 ± 0.1 kcal/mol | 2.99 ± 0.072 kcal/mol | 4.17 ± 0.05 kcal/mol
4 | SMTITFKTEEEAKKAAEELLKELEKKLKPGQKIKITVTTEDGKTITIEIEIKPPKKEVEVDEETGELKEKSA [r9_596_TrROS_Hall] | 1.97 ± 0.18 kcal/mol | 0.898 ± 0.073 kcal/mol | 2.26 ± 0.081 kcal/mol
5 | SAGGSAGGSSTTPVTITVPESILDEIKKKAEELGIKVEVEIKESPENKKYATVTIEIPENVELSAGGSAGGS [r12_653_JUSTAS] | 0.509 ± 0.14 kcal/mol | 0.935 ± 0.081 kcal/mol | -0.248 ± 0.25 kcal/mol
6 | SAGGMPLDSPEVQRRLAALKEALAKAEALREAGLEVKVVSIEFDPETREVTIEVEVRPAPPPPPEEPSAGGS [r8_277_TrROS_Hall] | 1.92 ± 0.12 kcal/mol | 1.81 ± 0.1 kcal/mol | 1.77 ± 0.083 kcal/mol
7 | SAGGSAEIAEKNGFKITVELHRYNDYIMVEIEIRWPGGQEFTVTIMIKIKIVPPKPPVDPNDPDNNSAGGSA [r15_843_TrROS] | 4.48 ± 0.51 kcal/mol | 4.47 ± 0.61 kcal/mol | 4.47 ± 0.12 kcal/mol
8 | SAKKTITLTITNEDGSTFTITITDNKITITNKDNGLVAEAEILPDGTIKLKIYNKNGELIAEITLKIKDSAG [r14_213_TrROS_Hall] | 4.09 ± 0.26 kcal/mol | 3.18 ± 0.32 kcal/mol | 4.32 ± 0.049 kcal/mol
9 | SAGGMEKVKVRVFFIDEETGEPREVEVEATLEELRELIEKIPDKGRVLVKLELPDEERIVTLEELKERSAGG [r13_254_TrMRF] | 2.76 ± 0.15 kcal/mol | 1.79 ± 0.065 kcal/mol | 3.23 ± 0.1 kcal/mol
10 | SAGGSAGGSAGGSDYIMFRIPAPPGEKIEIPIPNGWEVEINPQPHNGRWYFMIKIPEDASAGGSAGGSAGGS [r4_360_TrROS] | 1.13 ± 0.12 kcal/mol | 1.05 ± 0.085 kcal/mol | 1.09 ± 0.11 kcal/mol
11 | SKKVKITEITFPEGATFDGKKVTVTIKIVDEETGTVTITEITVDKNGKVTIKEVTVKVDPKTGKIVEITPSA [r9_122_TrROS_Hall] | 1.8 ± 0.19 kcal/mol | 1.74 ± 0.06 kcal/mol | 2.02 ± 0.04 kcal/mol
12 | SDYMPVHKMESDGKRNPNGQHEYEPKMEPVWVPVPPPPPRIRIPPEWREKLKELAEKLGHPITDDDINKISA [r9_487_TrROS] | -0.13 ± 0.31 kcal/mol | -0.283 ± 0.19 kcal/mol | 0.0759 ± 0.051 kcal/mol
13 | SAGGTAEEIVEALKEAGIPVLSIEPNSDGTYTITVGGPDGTPFTIEISSANPADLAALKEAIPEEVSSAGGS [r16_821_TrMRF] | 3.86 ± 0.12 kcal/mol | 3.35 ± 0.22 kcal/mol | 4.01 ± 0.072 kcal/mol
14 | SAGSIPEEIAKELGLPDLKVLKVETKPLPNGPLNIKIIELELPGGFKIKVTVVEEPEKIIIKTEPVPLSAGG [r19_392_JUSTAS] | 0.968 ± 0.27 kcal/mol | 0.966 ± 0.034 kcal/mol | 0.64 ± 0.18 kcal/mol
15 | SAGGSAKITIEKVDDQYRITVTVPVYDENGNKVPLTFDFVYPSDDPDAFLDDVIRRIRELNPDLEKSAGGSA [r15_1050_TrMRF] | 2.77 ± 0.1 kcal/mol | 2.3 ± 0.073 kcal/mol | 3.01 ± 0.084 kcal/mol
16 | SPRIKIDIPFFNANGHPQEVEIEYSPTDGMLMIKFPRNGYYIMIQIKRIEWEDGKLEIELDIFIMPPGDFSA [r9_587_TrROS] | 4.17 ± 0.43 kcal/mol | 3.01 ± 0.18 kcal/mol | 4.55 ± 0.22 kcal/mol
17 | SAGGSAGGPVKIHVHVNPEEGYYMIEVRSGNEPRHIMIPMDKEEIKSFIENLPPGIEVEIHPMPSAGGSAGG [r6_401_TrROS] | 1.4 ± 0.14 kcal/mol | 1.37 ± 0.067 kcal/mol | 1.19 ± 0.072 kcal/mol
18 | SAGGSAGGSSLTLRLRLRLRVRVLDEETGELSEFEVEVELELRFEPAPPPPPPPLVLRDGKLVSAGGSAGGS [r12_140_TrROS_Hall] | 4.34 ± 0.34 kcal/mol | 3.43 ± 0.15 kcal/mol | 4.53 ± 0.18 kcal/mol
19 | SAGEIKIEIKKNKNGKLTIRITVKKKDGEEKEIEIEVPENMTAEELAKELEKKGFEITEIKSIEELLKSAGG [r19_263_TrROS_Hall] | 3.98 ± 0.6 kcal/mol | 3.89 ± 0.34 kcal/mol | 3.83 ± 0.25 kcal/mol
20 | SAGGSAGGSKEVKTIKVEITITDKNGKKITVKAEIVYDKKTKKYYIKIRNKKTNKTYIIELKLSAGGSAGGS [r20_71_TrROS_Hall] | 4.47 ± 0.08 kcal/mol | 3.29 ± 0.088 kcal/mol | 4.753 ± 0.047 kcal/mol
21 | SAGGSGMIYVIKIKLEPTIKPGKKKEFEFELVLEATPEEIEEVLEKIKKLPKNIKIKEIKIEVFPESAGGSA [r2_75_TrMRF] | 2.6 ± 0.32 kcal/mol | 2.08 ± 0.12 kcal/mol | 3.18 ± 0.073 kcal/mol

Row | Sequence | folding stability dG unfold [1] | folding stability dG unfold [2] | folding stability dG unfold [3]
22 | SAGGSAGGWIRVDKVEPNPNDDMATVSVEMEDPGDGKKKKFNMTMPSDNPELIDKLPPGDWIEFSAGGSAGG [r6_979_TrROS] | -0.1 ± 0.096 kcal/mol | -0.621 ± 0.1 kcal/mol | 0.215 ± 0.11 kcal/mol
23 | SAGGSAGGSAGKPNIKKEANLEIFVTEDELEKALEIVKKLEEEGIEVKEAKIYVLKPEEGSAGGSAGGSAGG [r11_533_TrMRF] | -0.318 ± 0.21 kcal/mol | -0.858 ± 0.23 kcal/mol | -0.299 ± 0.39 kcal/mol
24 | SAGGKTIPIWFRVPPGMTPEEAADELADEIANELQQQNGKEIEIKIDDVEPNPNGWNIVRIKIEVDPSAGGS [r8_156_TrROS] | 0.26 ± 0.32 kcal/mol | 0.176 ± 0.3 kcal/mol | 0.433 ± 0.43 kcal/mol
25 | SAGMTITIPAPPSLSPEEAVALAIERVKEEYPELLTPGSEVNIVVIREDPATGTSQTLTVTVPFPEGIFSAG [r5_916_JUSTAS] | 1.79 ± 0.086 kcal/mol | 1.98 ± 0.045 kcal/mol | 1.57 ± 0.044 kcal/mol
26 | SAGGSAGGKPEVKITLVIEVETEEELKALAEELAALLGAEVEVRVERREDGRLLVTVTITVPAESAGGSAGG [r6_719_TrROS_Hall] | 2.97 ± 0.096 kcal/mol | 3.28 ± 0.14 kcal/mol | 2.77 ± 0.12 kcal/mol
27 | SAGGSLIEKIAKEAGIKVEISKEETNGSPVLTITITKGDKNIVFKDDGKDPEKLVKELAKKIGIKPISAGGS [r8_226_JUSTAS] | 0.422 ± 0.19 kcal/mol | 0.499 ± 0.043 kcal/mol | 0.414 ± 0.086 kcal/mol
28 | SAMKIIKINGKEVLLVKNENGEILIFVKNKKTNKYYLVKIEIKDGKIKIVEVKPIKTYSLEELLKEELLSAG [r14_384_TrROS_Hall] | 3.42 ± 0.11 kcal/mol | 3.22 ± 0.16 kcal/mol | 3.45 ± 0.023 kcal/mol
29 | SAGGSAGGSAGGMTTVTLTLTTELEVKDPEGKLHRETVTVTVTVPVPPSTLTDTTDLVSSAGGSAGGSAGGS [r10_168_JUSTAS] | 1.91 ± 0.17 kcal/mol | 1.82 ± 0.1 kcal/mol | 2.12 ± 0.054 kcal/mol
30 | SAGGSAGGSAGGNEEDIEKAVKEAKEKGENAEVKVTLPNGKEETVYIEVNVKEPSEKLKSAGGSAGGSAGGS [r10_573_JUSTAS] | < -1 kcal/mol | -1.05 ± 0.47 kcal/mol | -1.04 ± 0.22 kcal/mol
31 | SAGGTRTIWFPVDDIREALPPDNIKKVEVEPVGPENNWYKVTIEFPDYKIEIQYYPEEPGMFMVTITDSAGG [r13_942_TrROS] | 2.13 ± 0.29 kcal/mol | 0.791 ± 0.085 kcal/mol | 2.71 ± 0.043 kcal/mol
32 | SAGGSAGGSAGGRFEVLGVEPLPGNWVRVRVRYPGLGREATFLVRVSSLPLPPVDLDRFDSAGGSAGGSAGG [r11_986_TrMRF] | 2.71 ± 0.083 kcal/mol | 1.82 ± 0.037 kcal/mol | 3.11 ± 0.046 kcal/mol
33 | SAGGVIMIPADEILDMIEQNPDEPKTIFARPNNRMVMFTLKIDPDKPDNIEIDNVWRYDPNGKGEHLPSAGG [r13_481_TrROS] | -0.365 ± 0.22 kcal/mol | -0.526 ± 0.47 kcal/mol | -0.475 ± 0.31 kcal/mol
34 | SAGIFRFPDGQEITIPYYARTPNGKITPSEIKEQIKEFLAEQPGVKITEIEVEHEDNYVRVTITVRLPKSAG [r5_688_TrROS] | 1.01 ± 0.21 kcal/mol | 1.46 ± 0.14 kcal/mol | 0.316 ± 0.42 kcal/mol
35 | SAGGSAGGSAGGVPEDVIMSPVSTTLVEKEVLSTEVTPEGAPKTVEKVLIVEKTLEPLLSAGGSAGGSAGGS [r10_758_JUSTAS] | -0.429 ± 0.29 kcal/mol | 0.0499 ± 0.05 kcal/mol | -0.853 ± 0.24 kcal/mol
36 | SAGGSAGGSAGSIKEALKKLKPGDTVEIEITLKDGSKIKIRVKVIRDKKTKKYKVKIEIESAGGSAGGSAGG [r11_343_TrROS_Hall] | 3.99 ± 0.31 kcal/mol | 4.16 ± 0.47 kcal/mol | 3.84 ± 0.077 kcal/mol
37 | SAGGPPRTVTVFVNDPDGNTYTFTFSDSVPLSTVVANVSKTLGVPLTVDSVTVHPDGTVTITVTNPGSAGGS [r8_285_TrMRF] | 4.96 ± 0.062 kcal/mol | 4.57 ± 0.14 kcal/mol | 5 ± 0.06 kcal/mol
38 | SAGGMKVTEEPDATIVEVPLPDRKLTLTITRDGPGVTVTVTEDGEVLKTIPTDGPAEEAIAAAIAALSAGGS [r8_276_JUSTAS] | 1.29 ± 0.07 kcal/mol | 1.04 ± 0.016 kcal/mol | 1.43 ± 0.059 kcal/mol
39 | SAGGSAGGSMRTLKARITLRGPDGVEYRFEFEIPAGSAEDVVAFLKNLPVPPGWEVELEVLDESAGGSAGGS [r20_162_TrMRF] | 5.44 ± 0.1 kcal/mol | 4.42 ± 0.16 kcal/mol | 5.54 ± 0.088 kcal/mol
40 | SAGKKIKLELYFEENGLKVEVEFDEETGVITVKVELKDGTRIEAKFELLPDGTLKLEIKIEKVKPGEKPSAG [r5_766_TrROS_Hall] | 3.49 ± 0.46 kcal/mol | 2.94 ± 0.15 kcal/mol | 3.87 ± 0.27 kcal/mol
41 | SAGPPVEIPITIKIRYWKPDPDGPKPVEERTIPIPVRMPPDQLDDPAFNNFIKEALDELPPGIRMIEITSAG [r5_849_TrROS] | 1.07 ± 0.068 kcal/mol | 0.526 ± 0.042 kcal/mol | 1.28 ± 0.064 kcal/mol
42 | SAGGSAGGSAMPIKYLFPKDKSLEDILDEIIKKTGKPKSEIKNIKLEEIDDEEGFYVAYVESAGGSAGGSAG [r3_26_TrMRF] | 1.36 ± 0.22 kcal/mol | 1.36 ± 0.092 kcal/mol | 1.13 ± 0.13 kcal/mol
